Source: the supplement of paper PMC9170038

test system: MS2 coat protein; assay: apparent KD of MS2 coat protein; higher = weaker reporter binding; details: Eterna round: R107; input ligand: theophylline 2 mM
In short: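 The designed RNA switches were transcribed on-chip from Illumina sequencing clusters. In 100 mM Tris-HCl pH 7.5, 80 mM KCl and 4 mM MgCl2, without or with constant ligand, they were titrated with SNAP-549-labelled MS2 coat protein from 0.7 or 1.5 nM to 3 µM in twofold steps. Apparent KD is the per-design median of normalised cluster binding-curve fits.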

Going from “GCGGUGGUCGGAAGGAGCGACAUGAGGAUCACCCAUGUCUCCCGUUAUGGGAGUUCCUUAGGUCAGGUAGGUCGCCGACUGCCGC [#1 Exclusion - Arginine B Attempt #21 (Inspired by Omei)]” to “UACAUAUGCCGAAGGAGCGCGAGAAGCAAAGCUUCAUUCCUCACAUGAGGAUCACCCAUGUCGCAGGUAGGUCGCGGCAUAUGUU [#15 Exclusion - Arginine B]”, the “apparent KD of MS2 coat protein” value falls from 260 nM to 28.2 nM (9.2-fold).

First: CCUCGGGACCGAAGGAGCGAGAUAACAACAUUGGGUCUCAACACAUGAGGAUCACCCAUGUCUCAGGUAGGUCGCGGUACCAUGG [Exclusion Arginine B GF22]
Second: UUUUUCGCGGGUGAUACCAGCAAAGUUGUACUGGUCUGGUACAUGAGGAUCACCCAUGUUUGCCCUUGGCAGCGCUCGGGAGAAG [#22 Exclusion-TheophyllineB]
The “apparent KD of MS2 coat protein” value of the first is 12-fold higher: 387 nM for the first, 32.7 nM for the second.

same assay, conditions: Eterna round: R107; input ligand: tryptophan 2.4 mM

Compared with “AUAUAUAUGCGAAGGAGCGGGAAAUAUAUAUAUAUAAUCCUAACAUGAGGAUCACCCAUGUCCCAGGUAGGUCGCGCAUAUAUAU [12.A]”, “UUAAGAGGAUAUCAAAUUUGAUUUUGUGAUACCAGAAUAAUUUUAUUCCCUUGGCAGCAUGACAUGAGGAUCACCCAUGUGUCUU [SSTheo A #1]” is 2.3-fold lower in “apparent KD of MS2 coat protein” value: 72.2 nM for the first, 30.9 nM for the second.

Compared with “ACAUGAGGAUCACCCAUGUAUGGCGCGGAAGGAGCGUGAUUAAGCACAGGUAGGUCGCUGCGUUGAUCGAGCGUUAGCUCGAUAA [SSArg A #9]”, “UGUAACAUGAGGAUCACCCAUGUGCACGAUACCAGCUUAUUGAUAGGCCCUUGGCAGCGUAUGCGGAAGCUGUAUAAUAUAUAUC [#27 SameState-TheophyllineA]” is 2.1-fold lower in “apparent KD of MS2 coat protein” value: 22.3 nM for the first, 10.8 nM for the second.

Compared with “UGUGGGUCCGAAGAUACCAGCCAGCACAGCAUGUGUUUAAACAUGAGGAUCACCCAUGUCGGCCCUUGGCAGCUUGGUUUGGACG [theeternabot_exclusion_MS2_Theo_B_7]”, “AACAUGAGGAUCACCCAUGUCGGGCCGGUGCGAGGACCGGUACGGCCGCCACUCGAGACAUGAGGAUCACCCAUGUUGUGCGUGA [Exclusion Tryptophan A GF23]” is 8.7-fold higher in “apparent KD of MS2 coat protein” value: 15.8 nM for the first, 138 nM for the second.

Compared with “CGGCCCUCACUUGAGGAUCACCCAAGUGAUACCAGCCUGGAAACAGGCCCUUGGCAGCACUAGGUCAUCAAAGAUGACCAAGCCG [TheoAX 28 #OpenEnded #AlternativeMS2]”, “AACUGGAAAAGUGAUACCAGAGACAUGAGGAUCACCCAUGUACAUGAGGAUCACCCAUGUCUCCCUUGGCAGCACAAAAGGGAGA [Exclusion Theophylline B Gf11]” is 1.8-fold higher in “apparent KD of MS2 coat protein” value: 13.4 nM for the first, 24.5 nM for the second.

First: AGUACACGAACGGAUACCAGCCGGACAUGAGGAUCACCCAUGUCCUACCUCUGUUCGGUUGGCCCUUGGCAGCCGUUCGUGUACA [Omei Theo B SS A v8]
Second: CAAUUUCGAAUAGAUACCAGCUGUCAUAAACACAUGAGGAUCACCCAUGUGCUUCUCGUCAGCCCUUGGCAGCUAUAACUAGAGC [theeternabot_sameState_MS2_Theo_B_40]
The “apparent KD of MS2 coat protein” value of the first is 13-fold higher: 208 nM for the first, 16.1 nM for the second.

Compared with “ACAUGAGGAUCACCCAUGUGGAGCAGGGUACGAGGACCGGUACGGCCGCCACUCGAGCGUUAUGACGAGUGAAUGGCAACGAUGU [whbob_X-Trypto_A_V1.0]”, “ACAUGAGGAUCACCCAUGUAAAUCCUCGAUACCAGCCAAAGGAGAGGCCCUUGGCAGCGGAAAGGCCGGGUAUAAAUGUCCGGCC” is 10-fold higher in “apparent KD of MS2 coat protein” value: 12.1 nM for the first, 125 nM for the second.

Going from “UAUUUUGUGAUGGAUACCAGCAGAGAAAACGUUUAUCCUAACAUGAGGAUCACCCAUGUAUGCCCUUGGCAGCUGUUGUGGGAUA [8.Q]” to “UCUUGAGUUUCGGAUACCAGUGUUGUCGAUACAUGAGGAUCACCCAUGUUAGAGGAUGUACACCCUUGGCAGCCGGGUGUGGCGG [tftmullin]”, the “apparent KD of MS2 coat protein” value falls from 29.9 nM to 15.5 nM (1.9-fold).

“UGUAUGUGAUUUGAUACCAGACCAGCUGGUGUUAGAUGAGGAUCACCCAUCUAGGUUUGGGUCCCUUGGCAGCAAAUCGCAUACU [SS Theo B #24 Ms13]” and “GCUGUAAGUGCAGAUACCAGCGUGUUAUAUUUCUAAUGACAUGAGGAUCACCCAUGUAAAUGCCCUUGGCAGCUGCACUUACAGC [SSTHB #7]” are within 1.5-fold of each other in “apparent KD of MS2 coat protein” value: 18 nM for the first, 16.2 nM for the second.

Going from “UGAGAGACCAGAAGGAGCGACAUGAGGAUCACCCAUGUCUCCCGUUAUGGGAGUUCUUUAGGUCAGGUAGGUCGCUGGUCUCUCA [#1 Exclusion - Arginine B Attempt #8 (Inspired by Omei)]” to “AAUCGGGAUGGUCAAGGGUAUGCUAUAGAUACCAGUGCAGAGAAACACCCUUGGCAGCUGUGGAACAUGAGGAUCACCCAUGUAG [Theo A Ex t4]”, the “apparent KD of MS2 coat protein” value falls from 87.8 nM to 11.1 nM (7.9-fold).

First: UAUAUAGAAGGAAGUCAUAUAGAUGCAGAAGGAGCGUAGGAAACUACAGGUAGGUCGCUGAGGUACAUGAGGAUCACCCAUGUAG [SSArg A #15 Slice of Pi]
Second: AACGUGAACGUGGUAUACCCGUGUGCCGAAGGAGCGCCCGAAAGGGCAGGUAGGUCGCGGACGACAUGAGGAUCACCCAUGUUUG
The “apparent KD of MS2 coat protein” value of the first is 2-fold lower: 29.4 nM for the first, 57.7 nM for the second.

First: ACGUAAAGCAGAAGGAGCGUCUUAAUUCUACAUGAGGAUCACCCAUGUUUACAUUGAAUAUGACAGGUAGGUCGCUGAAGUACGA [JR_SSArginiB_Sub001]
Second: AUGCCUAGUGGAAGGAGCGAGGGUCUUCUCAACAUGAGGAUCACCCAUGUUCUUUUACACCCUCAGGUAGGUCGCCAUUGGGACA [Biraanve]
The “apparent KD of MS2 coat protein” value of the first is 2.6-fold lower: 23.8 nM for the first, 61.2 nM for the second.

Going from “GGUCUCUGGAGCGAUACCAGCUUGAGUGUACUGGCCAGGUACAUGAGGAUCACCCAUGUAAGCCCUUGGCAGCGCUGCAGAGACC [#1 Exclusion - Theophylline B Attempt #16 (HarryS)]” to “ACGUAAUGCAGAAGGAGCGUCGAUCUCAUACAUGAGGAUCACCCAUGUUACAUGGUUGGACGACAGGUAGGUCGCUGAAGUACGA [#06 Exclusion - Arginine B]”, the “apparent KD of MS2 coat protein” value rises from 11.2 nM to 21.4 nM (1.9-fold).

“AGAUUCGACACGGCCGCCACUCGUGGAGGAUUACCGAGUGUCGAACAUGAGGAUCACCCAUGUACGAGGACCGGGUGUUGAGUCU [XTryp B #15]” and “GCGGUGGUCGGAAGGAGCGACAUGAGGAUCACCCAUGUCUCCCGUUAUGGGAGUUCCUUAGGUCAGGUAGGUCGCCGACUGCCGC [#1 Exclusion - Arginine B Attempt #21 (Inspired by Omei)]” are within 1.5-fold of each other in “apparent KD of MS2 coat protein” value: 179 nM for the first, 227 nM for the second.

Going from “AACAUGAGGAUCACCCAUGUAUUGGGUGAUACCAGCCUGAAUAAUGGCCCUUGGCAGCACCACGCUAACUUUAUGUCUGCGAACC [Maus]” to “UACAUAUGCCGAAGGAGCGCGAGAAGCAAAGCUUCAUUCCUCACAUGAGGAUCACCCAUGUCGCAGGUAGGUCGCGGCAUAUGUU [#15 Exclusion - Arginine B]”, the “apparent KD of MS2 coat protein” value falls from 83.6 nM to 24 nM (3.5-fold).

Going from “GUAAAUGUGACGGAUACCAGCGUGUUGUAGAACAUGAGGAUCACCCAUGUAGUGAUCAUGCGCCCUUGGCAGCUGGUAUGUUUGU [7.aB]” to “CCUCGGGACCGAAGGAGCGAGAUAACAACAUUGGGUCUCAACACAUGAGGAUCACCCAUGUCUCAGGUAGGUCGCGGUACCAUGG [Exclusion Arginine B GF22]”, the “apparent KD of MS2 coat protein” value falls from 684 nM to 182 nM (3.8-fold).

“UUUUUCGCGGGUGAUACCAGCAAAGUUGUACUGGUCUGGUACAUGAGGAUCACCCAUGUUUGCCCUUGGCAGCGCUCGGGAGAAG [#22 Exclusion-TheophyllineB]” and “CAUCGGGCGGUAAAUGGCGGGUACGGUGAUACCAGUUUUUGAUUUAACCCUUGGCAGCACUAUACAUGAGGAUCACCCAUGUAAU [theeternabot_exclusion_MS2_Theo_A_15]” are within 1.5-fold of each other in “apparent KD of MS2 coat protein” value: 23.5 nM for the first, 19.5 nM for the second.

Going from “GCCCUUGGCAGCGAUACCAGCCAAAAUUAAAAUAAACCUCUACAUGAGGAUCACCCAUGUGGCCCUUGGCAGCGAUACCAGCAAA [#ReversedDoubbleAptamer 1]” to “AAACGUUGCUGCGAUACCAGACAUGAGGAUCACCCAUGUACCAAGGUACGAAUAUAACAUGUCCCUUGGCAGCGCAGCAACGAAA [MAT - Exclusion Theophlline B - Mod of Eli - D7]”, the “apparent KD of MS2 coat protein” value falls from 43.5 nM to 13.6 nM (3.2-fold).
